From publication PMC3212511

Legend:
[1] = target: human desmin (assembled into filaments in vitro) (human) (UniProt P17661); experiment: low-speed sedimentation assay; desmin alone assembled at 22°C; 2,500 g, 10 min, 20°C; pellets only filaments associated with each other (filament-filament interactions); SDS-PAGE densitometry
[2] = target: human desmin (assembled into filaments in vitro) (human) (UniProt P17661); experiment: low-speed sedimentation assay; desmin alone assembled at 37°C; 2,500 g, 10 min, 20°C; pellets only filaments associated with each other (filament-filament interactions); SDS-PAGE densitometry
[3] = target: human desmin (assembled into filaments in vitro) (human) (UniProt P17661); experiment: low-speed sedimentation assay; desmin alone assembled at 44°C; 2,500 g, 10 min, 20°C; pellets only filaments associated with each other (filament-filament interactions); SDS-PAGE densitometry

% of desmin in the low-speed pellet (filament-filament interactions) [1]: 24%
% of desmin in the low-speed pellet (filament-filament interactions) [2]: 45%
% of desmin in the low-speed pellet (filament-filament interactions) [3]: 61%
Substance: human desmin (assembled into filaments in vitro) (from UniProt P17661 1-470) (natural protein)
